Results on two substances are retold here after patent US20200072853A1.

In assay [1] the target is human proBNP(1-108), recombinant protein produced in E. coli (non-glycosylated) (human) (UniProt P16860). As to the kind of experiment: sandwich ELISA; capture hinge 76; proBNP(1-108) 156.25 pg/ml; detection mAb-peroxidase 0.5 ug/ml. A general note: An ELISA detects its analyte on a solid surface through an enzyme-linked reagent.
The target is the same in assay [2]. As to the kind of experiment: sandwich ELISA; capture hinge 76; proBNP(1-108) 312.5 pg/ml; detection mAb-peroxidase 0.5 ug/ml.
Assay [3] addresses human BNP(1-32) (human). The experiment in a line: sandwich ELISA; capture L21016; BNP(1-32) 5,000 pg/ml; detection mAb 0.5 ug/ml.
For assay [4], the target named is human proBNP(1-108), recombinant protein produced in E. coli (non-glycosylated) (human) (UniProt P16860). As to the kind of experiment: sandwich ELISA; capture hinge 76; proBNP(1-108) 39 pg/ml; detection mAb-peroxidase 0.5 ug/ml.
For assay [5] the target is unchanged. As to the kind of experiment: sandwich ELISA; capture hinge 76; proBNP(1-108) 78 pg/ml; detection mAb-peroxidase 0.5 ug/ml.
Assay [6] addresses human BNP(1-32) (human). As to the kind of experiment: sandwich ELISA; capture L21016; BNP(1-32) 78 pg/ml; detection mAb 0.5 ug/ml.
In assay [7] the target is human BNP(1-32) (human). The experiment in a line: sandwich ELISA; capture L21016; BNP(1-32) 1,250 pg/ml; detection mAb 0.5 ug/ml.
Sequence of human BNP(1-32) (human) (peptide, as listed by the source): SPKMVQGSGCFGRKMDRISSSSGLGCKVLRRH
The target of assay [8] is human BNP(1-32) (human). As to the kind of experiment: sandwich ELISA; capture L21016; BNP(1-32) 10,000 pg/ml; detection mAb 0.5 ug/ml.
The target of assay [9] is human BNP(1-32) (human). As to the kind of experiment: sandwich ELISA; capture L21016; BNP(1-32) 156.25 pg/ml; detection mAb 0.5 ug/ml.
In assay [10] the target is human BNP(1-32) (human). The experiment in a line: sandwich ELISA; capture L21016; BNP(1-32) 312.5 pg/ml; detection mAb 0.5 ug/ml.
The target in assay [11] is human proBNP(1-108), recombinant protein produced in E. coli (non-glycosylated) (human) (UniProt P16860). The experiment in a line: sandwich ELISA; capture hinge 76; proBNP(1-108) 5,000 pg/ml; detection mAb-peroxidase 0.5 ug/ml.
For assay [12] the target is unchanged. As to the kind of experiment: sandwich ELISA; capture hinge 76; proBNP(1-108) 2,500 pg/ml; detection mAb-peroxidase 0.5 ug/ml.
The target is the same in assay [13]. As to the kind of experiment: sandwich ELISA; capture hinge 76; proBNP(1-108) 20 pg/ml; detection mAb-peroxidase 0.5 ug/ml.
Assay [14] addresses human BNP(1-32) (human). As to the kind of experiment: sandwich ELISA; capture L21016; BNP(1-32) 39 pg/ml; detection mAb 0.5 ug/ml.
Assay [15] concerns the target human proBNP(1-108), recombinant protein produced in E. coli (non-glycosylated) (human) (UniProt P16860). As to the kind of experiment: sandwich ELISA; capture hinge 76; proBNP(1-108) 1,250 pg/ml; detection mAb-peroxidase 0.5 ug/ml.
The target in assay [16] is human BNP(1-32) (human). The experiment in a line: sandwich ELISA; capture L21016; BNP(1-32) 625 pg/ml; detection mAb 0.5 ug/ml.
The target of assay [17] is human BNP(1-32) (human). As to the kind of experiment: sandwich ELISA; capture L21016; BNP(1-32) 2,500 pg/ml; detection mAb 0.5 ug/ml.
The target of assay [18] is human proBNP(1-108), recombinant protein produced in E. coli (non-glycosylated) (human) (UniProt P16860). As to the kind of experiment: sandwich ELISA; capture hinge 76; proBNP(1-108) 625 pg/ml; detection mAb-peroxidase 0.5 ug/ml.
For assay [19] the target is unchanged. As to the kind of experiment: sandwich ELISA; capture hinge 76; proBNP(1-108) 0 pg/ml (blank); detection mAb-peroxidase 0.5 ug/ml.
Assay [20] concerns the target human BNP(1-32) (human). As to the kind of experiment: sandwich ELISA; capture L21016; BNP(1-32) 20 pg/ml; detection mAb 0.5 ug/ml.
In assay [21] the target is human BNP(1-32) (human). As to the kind of experiment: sandwich ELISA; capture L21016; BNP(1-32) 0 pg/ml (blank); detection mAb 0.5 ug/ml.
The target of assay [22] is human proBNP(1-108), recombinant protein produced in E. coli (non-glycosylated) (human) (UniProt P16860). As to the kind of experiment: sandwich ELISA; capture hinge 76; proBNP(1-108) 10,000 pg/ml; detection mAb-peroxidase 0.5 ug/ml.

Sequence of human proBNP(1-108), recombinant protein produced in E. coli (non-glycosylated) (human) (P16860 27-134): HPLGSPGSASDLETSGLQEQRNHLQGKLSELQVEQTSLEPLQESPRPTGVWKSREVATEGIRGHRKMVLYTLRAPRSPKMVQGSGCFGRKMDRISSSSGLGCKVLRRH

As for “24C5 monoclonal antibody (HyTest, Turku, Finland)”, the OD in assay [1] turned out to be 0.055 OD; in assay [2], 0.035 OD; in assay [4], 0.056 OD; in assay [5] it was 0.056 OD; in assay [11], 0.117 OD; in assay [12], 0.069 OD. Further, the OD is 0.052 OD in [13]; 0.068 OD in assay [15]; 0.07 OD in assay [18]; 0.044 OD in assay [19]; 0.22 OD in assay [22]. Moreover, the OD 490 nm was found to be 0.068 OD with human BNP(1-32) (human) [3]; 0.052 OD with human BNP(1-32) (human) [6]; 0.056 OD in the assay with human BNP(1-32) (human) [7]; 0.077 OD with human BNP(1-32) (human) [8]; 0.071 OD with human BNP(1-32) (human) [9]; 0.063 OD with human BNP(1-32) (human) [10]. Also, the OD 490 nm with human BNP(1-32) (human) [14] worked out at 0.055 OD; in the assay with human BNP(1-32) (human) [16] it was 0.059 OD; with human BNP(1-32) (human) [17], 0.067 OD; with human BNP(1-32) (human) [20], 0.068 OD; with human BNP(1-32) (human) [21] it was 0.071 OD.
“26E2 monoclonal antibody (HyTest, Turku, Finland)”: the OD stood at 0.027 OD in [1]; 0.028 OD in [2]; 0.028 OD in [4]; 0.033 OD in assay [5]; 0.041 OD in assay [11]; 0.031 OD in assay [12]. Moreover, the OD amounted to 0.028 OD in assay [13]; 0.024 OD in assay [15]; 0.024 OD in assay [18]; 0.024 OD in assay [19]; 0.158 OD in assay [22]. The OD 490 nm with human BNP(1-32) (human) [3] stood at 0.041 OD; in the assay with human BNP(1-32) (human) [6] it was 0.055 OD; in the assay with human BNP(1-32) (human) [7] it was 0.031 OD; with human BNP(1-32) (human) [8], 0.048 OD; with human BNP(1-32) (human) [9], 0.032 OD; with human BNP(1-32) (human) [10], 0.027 OD. In addition, the OD 490 nm with human BNP(1-32) (human) [14] was 0.032 OD; with human BNP(1-32) (human) [16] it was 0.029 OD; with human BNP(1-32) (human) [17] it was 0.035 OD; in the assay with human BNP(1-32) (human) [20] it was 0.034 OD; with human BNP(1-32) (human) [21], 0.022 OD.
